For experiment [1], the target named is T1, extracellular domain of the human CSF1R protein (hCSF1R_His) (human, UniProt P07333 20-512).
T1 construct: range 20-512; Made in CHO cells, molecular weight 57.4 kDa as printed; not shown: C-terminal His-tag and FLAG-tag
Put plainly: BLI (Octet RED 384), antibody-like molecule on ProA sensors, hCSF1R_His analyte 174.2 nM, 1:1 model. How it is done:
(§1) Experiments were carried out using a kinetic buffer solution (hereinafter referred to as 1×KB); volume fraction of added Tween 20 was 0.1%; mass fraction of added BSA (bovine serum albumin) was 0.1%; pH 7.4. Before the measurement, the ProA sensors were regenerated with a solution of 50 mM glycine and hydrochloric acid, pH 1.8 (5 seconds in the regenerating solution, 5 seconds in 1×KB, three repetitions).
In the case of the hPDlex-H6F and hCSF1R_His antigens, the Protein A (ProA) biosensors (ForteBio) were immersed in a solution with antibody-like molecules at a concentration of 10 µg/ml for 300 seconds to immobilize same. The baseline was recorded in 1×KB for 120 seconds. Sensors loaded with the antibody-like molecule were then immersed into wells containing a solution of the target antigen (analyte) in a kinetic buffer for 300 seconds. Measurements were performed for solutions with hPDlex-H6F analyte at concentrations of 10 µg/ml (485.4 nM), for solutions with hCSF1R_His analyte at concentrations of 10 µg/ml (174.2 nM). Complex dissociation in 1×KB was then detected for 600 seconds.
(§2) To obtain numerical values of kinetic constants (kon is the on/association rate constant, kdis is the dissociation rate constant, KD is the equilibrium dissociation constant or affinity constant), the resulting sensograms were processed according to the 1:1 interaction model using Global Fit (selection of one set of kon, kdis, KD constants to analyze several sensograms of different concentrations) of the ForteBio Octet Data Analysis 9.0 software.

Experiment [2] deals with T2, biotinylated peptide [NH2]CEPANPSEKNSPSTQYCYSIQS[CH2CH2]biotin comprising a fragment of the human CD20 … (human, [NH2] at the N-terminus; [CH2CH2]biotin at the C-terminus (so in the source)).
T2 construct: Immobilized on streptavidin (SAX) sensors; also called CD20 peptide
T2 peptide: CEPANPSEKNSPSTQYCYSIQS
Description: BLI (Octet RED 384), biotinylated CD20 peptide on SAX sensors, antibody-like molecule as analyte, 1:1 model, global fit. How it is done: as §1
In the case of biotinylated […], the peptide at a concentration of 2.5 μg/ml was immobilized on the surface of SAX sensors (High Precision Streptavidin (SAX) biosensors, ForteBio) for 300 seconds. The baseline was recorded in a 1×KB solution for 120 seconds. Sensors loaded with peptide were then immersed into wells containing the solution of antibody-like molecule (analyte) in 1×KB for 300 seconds. Measurements were performed for solutions with analyte (antibody-like molecule in case of CD20 peptide) at concentrations […] and 75 µg/ml. Complex dissociation was recorded in 1×KB for 60 seconds.
as §2

Usually Kd stands for the equilibrium constant for the complex coming apart. A higher Kd goes with weaker binding. One may read the koff as the rate constant with which the complex falls apart. By kon is commonly meant the second-order rate constant of association.

T1 sequence (P07333 20-512 limits assumed): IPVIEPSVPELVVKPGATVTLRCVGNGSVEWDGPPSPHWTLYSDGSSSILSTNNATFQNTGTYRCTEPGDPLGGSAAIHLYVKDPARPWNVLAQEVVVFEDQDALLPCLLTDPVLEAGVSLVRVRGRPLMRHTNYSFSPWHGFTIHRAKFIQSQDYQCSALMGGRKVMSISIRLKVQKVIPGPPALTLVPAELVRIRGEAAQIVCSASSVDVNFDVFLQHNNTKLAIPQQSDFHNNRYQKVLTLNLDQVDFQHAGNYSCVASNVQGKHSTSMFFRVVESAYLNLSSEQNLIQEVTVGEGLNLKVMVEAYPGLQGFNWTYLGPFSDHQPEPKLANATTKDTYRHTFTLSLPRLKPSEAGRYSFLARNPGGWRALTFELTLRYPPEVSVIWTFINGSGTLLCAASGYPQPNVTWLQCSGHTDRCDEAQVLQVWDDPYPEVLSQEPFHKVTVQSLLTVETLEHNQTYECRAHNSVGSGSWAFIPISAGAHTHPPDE

B1: antibody-like molecule 08-005 (binds CD20 and CSF1R) (bispecific antibody, human IgG1, kappa, L234A L235A)
heavy 1: EVQLVESGGGLVQPGGSLRLSCAASGYTFTSYNMHWVRQAPGKGLEWVGAIYPGNGDTSYNQKFKGRFTISVDKSKNTLYLQMNSLRAEDTAVYYCARVVYYSNSYWYFDVWGQGTLVTVSSASTKGPSVFPLAPSSKSTSGGTAALGCLVKDYFPEPVTVSWNSGALTSGVHTFPAVLQSSGLYSLSSVVTVPSSSLGTQTYICNVNHKPSNTKVDKRVEPKSCDKTHTCPPCPAPEAAGGPSVFLFPPKPKDTLYITREPEVTCVVVDVSHEDPEVKFNWYVDGVEVHNAKTKPREEQYNSTYRVVSVLTVLHQDWLNGKEYKCKVSNKALPAPIEKTISKAKGQPREPQVCTLPPSRDELTKNQVSLSCAVKGFYPSDIAVEWESNGQPENNYKTTPPVLDSDGSFFLVSKLTVDKSRWQQGNVFSCSVMHEALHNHYTQKSLSLSPGK
light 1: DIQMTQSPSSLSASVGDRVTITCRASSSVSYMHWYQQKPGKAPKPLIYAPSNLASGVPSRFSGSGSGTDFTLTISSLQPEDFATYYCQQWSFNPPTFGQGTKVEIKRTVAAPSVFIFPPSDEQLKSGTASVVCLLNNFYPREAKVQWKVDNALQSGNSQESVTEQDSKDSTYSLSSTLTLSKADYEKHKVYACEVTHQGLSSPVTKSFNRGEC
heavy 2: not shown
light 2: QAGLTQPPSVSVAPGQTARITCGGNNIGSKSVHWYQQKPGQAPVLVVYGDSDRPSGIPERFSGSNSGNTATLTISRVEAGDEADYYCQVWDISSDHVVFGGGTQLTVLQRQVKPEAWLSKGPSPGPGRLQLVCHVSGFYPKPVWVMWMRGEQEQQGTQLGDILPNADWTWYLRATLDVADGEAAGLSCRVKHSSLEGQDIILYWRGSC
notes: Four distinct chains: Ocrelizumab Fab arm (hole) and anti-CSF1R Fab-like arm with b2m/CD1b alpha3 dimerization unit (knob)
Regarding B1, in experiment [1], the Kd was 1.4 nM, the off-rate (koff) is 0.000253 s⁻¹ and the kon was 181000 M⁻¹ s⁻¹. In experiment [2], this molecule registered an equilibrium dissociation constant (Kd) of 483 nM, a koff of 0.0581 s⁻¹ and an association rate constant (kon) of 120000 M⁻¹ s⁻¹.

B2: antibody-like molecule 08-006 (binds CSF1R and CD20) (bispecific antibody, human IgG1, kappa, L234A L235A)
heavy 1: QVQLVESGGGLVRPGGSLRLSCAASEFTFDDYAMSWVRQAPGKGLEWVSAISWNGGSTNYADSVKGRFTISRDNAKNSLYLQMNSLRAEDTALYYCASTVEVAHRRLYKYLEVWGQGTLVTVSSASTKGPSVFPLAPSSKSTSGGTAALGCLVKDYFPEPVTVSWNSGALTSGVHTFPAVLQSSGLYSLSSVVTVPSSSLGTQTYICNVNHKPSNTKVDKRVEPKSCDKTHTCPPCPAPEAAGGPSVFLFPPKPKDTLYITREPEVTCVVVDVSHEDPEVKFNWYVDGVEVHNAKTKPREEQYNSTYRVVSVLTVLHQDWLNGKEYKCKVSNKALPAPIEKTISKAKGQPREPQVCTLPPSRDELTKNQVSLSCAVKGFYPSDIAVEWESNGQPENNYKTTPPVLDSDGSFFLVSKLTVDKSRWQQGNVFSCSVMHEALHNHYTQKSLSLSPGK
light 1: QAGLTQPPSVSVAPGQTARITCGGNNIGSKSVHWYQQKPGQAPVLVVYGDSDRPSGIPERFSGSNSGNTATLTISRVEAGDEADYYCQVWDISSDHVVFGGGTQLTVLRTVAAPSVFIFPPSDEQLKSGTASVVCLLNNFYPREAKVQWKVDNALQSGNSQESVTEQDSKDSTYSLSSTLTLSKADYEKHKVYACEVTHQGLSSPVTKSFNRGEC
heavy 2: not shown
light 2: DIQMTQSPSSLSASVGDRVTITCRASSSVSYMHWYQQKPGKAPKPLIYAPSNLASGVPSRFSGSGSGTDFTLTISSLQPEDFATYYCQQWSFNPPTFGQGTKVEIKQRQVKPEAWLSKGPSPGPGRLQLVCHVSGFYPKPVWVMWMRGEQEQQGTQLGDILPNADWTWYLRATLDVADGEAAGLSCRVKHSSLEGQDIILYWRGSC
notes: Four distinct chains: anti-CSF1R Fab arm (hole) and Ocrelizumab Fab-like arm with b2m/CD1b alpha3 dimerization unit (knob)
In experiment [1], B2 had a Kd of 1.92 nM, a koff of 0.000372 s⁻¹ and a kon of 194000 M⁻¹ s⁻¹. For the same molecule, in experiment [2], binding was put at a Kd of 2600 nM, the koff was 0.418 s⁻¹ and the kon was 161000 M⁻¹ s⁻¹.

For the origin of these results see patent US20260242492A1 (JOINT STOCK COMPANY BIOCAD, published 2026).
